Experimental data published in patent publication US20210253718A1, “FRIZZLED5 PROTEIN-BINDING AGENTS” (Modmab Therapeutics Corporation, priority 2016, published 2021).

Assays:
PATU8988S cells = assay: Effect of anti-FZD5 Fabs on proliferation of pancreatic cancer cell lines (percent growth inhibition); type: cell-based, human; conditions: Fab 2 μg/ml
FZD3 CRD = molecular target: T1, FZD3 CRD (Homo sapiens, UniProt Q9NPG1); assay: Immunofluorescence of anti-FZD5 Fab binding to CHO cells overexpressing Frizzled CRD; parameters: key: −: no binding; +: very weak binder; ++: weak binder; +++: good binder; ++++: very good binder
T1 construct: CRD of FZD1, FZD2, FZD3, FZD4, FZD5, FZD6, FZD7, FZD8, FZD9 or FZD10; GPI anchor signal (C); expressed in transfected cells; host or cells: CHO cells, lentiviral pLenti-puro
T1 sequence (Q9NPG1 23-136 limits assumed): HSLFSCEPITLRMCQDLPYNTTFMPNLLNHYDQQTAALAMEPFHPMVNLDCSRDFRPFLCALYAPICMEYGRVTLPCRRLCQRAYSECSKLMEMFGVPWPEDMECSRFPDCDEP
Experimental: (§1) Plasmids: pLCKO lentiviral vector used for knockout (TKO) library construction and expression of individual gRNAs was constructed as described previously (Hart et al., 2015). Briefly, single guide RNA (sgRNA) scaffold was amplified from px330 (Addgene 42230) and cloned into pLKO.TRC005 lentiviral vector (Broad Institute, Cambridge, Mass.) using AgeI/EcoRI restriction sites. BfuAI sites were added at the 5′ end of the sgRNA scaffold for cloning the TKO library or individual gRNA target sequences. Lenti Cas9-2A-BsdR vector used to generate Cas9 stable expression cell lines was constructed as described previously (Hart et al., 2015). Briefly, lentiCRISPR pXPR_001 (Addgene 49535) was modified through removal of the sgRNA scaffold region through NdeI/EcoRI digest and blunt ends generation using Large Klenow Fragment (NEB). 2A-puro was replaced with 2A-BsdR by PCR using the NheI/MluI sites. Each of the 10 human Frizzled cysteine rich domains (CRDs) were cloned into the lentiviral expression plasmid pLenti-puro in the following cassette: FZD_CRD-MYC-GPI.
(§2) To confirm that the FZD5-WNT7B circuit is not driven simply by expression and rule out the possibility of a disconnect between RNA and protein levels for the Wnt receptors in HPAF-II cells, a panel of recombinant Fabs were generated, alternatively referred to herein as ‘Frizzled profiler’, that can detect and discriminate all but one of the ten Frizzled receptors. […] To characterize the binding specificity of these Fabs on cells, a panel of 10 CHO cell lines was generated, each expressing the CRD domain of a different myc-tagged Frizzled family member anchored at the plasma membrane through a GPI anchor (CHO-myc-FZDGPI). Despite the high sequence identity between Frizzled family members (FIG. 7A, FIG. 7B), selective Fabs were identified for FZD4, FZD5, FZD6 and FZD10 as assessed by immunofluorescence and flow cytometry (FIG. 7D and FIG. 8). […] The FZD8 CRD is most homologous to that of FZD5 (FIG. 7B). These Fabs can be used to discriminate expression of FZD1, FZD2, FZD4, FZD5, FZD6, FZD7, FZD8, FZD9 and FZD10 (FIG. 7D and FIG. 8). The ‘Frizzled profiler’ therefore consists of 10 different Fabs that can be used to discriminate expression of 9 different Frizzled family members. The Frizzled profiler was then used to confirm that HPAF-II cells express FZD1, FZD5, FZD6 and possibly FZD8 (FIG. 7E).
(§3) The binding of anti-FZD5 Fabs to cell surface-expressed Frizzled protein was further determined for each member of the Frizzled family via flow cytometry and immunofluorescence analysis of a panel of 10 CHO cell lines, each ectopically over-expressing the extracellular cysteine-rich domain (CRD) of a different Frizzled protein family member.

FZD6 CRD = molecular target: T2, FZD6 CRD (Homo sapiens, UniProt O60353); assay: as above; parameters: key: −: no binding; +: very weak binder; ++: weak binder; +++: good binder; ++++: very good binder
T2 construct: S20-P146; GPI anchor signal (C); expressed in transfected cells; host or cells: CHO cells, lentiviral pLenti-puro
T2 sequence (O60353 20-146): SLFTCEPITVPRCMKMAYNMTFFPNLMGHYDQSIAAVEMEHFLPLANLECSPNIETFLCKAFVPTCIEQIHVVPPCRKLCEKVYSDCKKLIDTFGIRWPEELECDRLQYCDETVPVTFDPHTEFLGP
Experimental: as §1, §2, §3

FZD4 CRD = molecular target: T3, FZD4 CRD (Homo sapiens, UniProt Q9ULV1); assay: as above; parameters: key: −: no binding; +: very weak binder; ++: weak binder; +++: good binder; ++++: very good binder
T3 construct: E42-V167; GPI anchor signal (C); expressed in transfected cells; host or cells: CHO cells, lentiviral pLenti-puro
T3 sequence (Q9ULV1 42-167): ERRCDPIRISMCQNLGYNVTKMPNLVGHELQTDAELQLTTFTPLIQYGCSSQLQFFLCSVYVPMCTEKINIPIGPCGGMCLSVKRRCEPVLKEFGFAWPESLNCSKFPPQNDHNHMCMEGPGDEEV
Experimental: as §1, §2, §3

FZD2 CRD = molecular target: T4, FZD2 CRD (Homo sapiens, UniProt Q14332); assay: as above; parameters: key: −: no binding; +: very weak binder; ++: weak binder; +++: good binder; ++++: very good binder
T4 construct: D35-P161; GPI anchor signal (C); expressed in transfected cells; host or cells: CHO cells, lentiviral pLenti-puro
Experimental: as §1, §2, §3

FZD9 CRD = molecular target: T5, FZD9 CRD (Homo sapiens, UniProt O00144); assay: as above; parameters: key: −: no binding; +: very weak binder; ++: weak binder; +++: good binder; ++++: very good binder
T5 construct: G35-A161; GPI anchor signal (C); expressed in transfected cells; host or cells: CHO cells, lentiviral pLenti-puro
T5 sequence (O00144 35-161): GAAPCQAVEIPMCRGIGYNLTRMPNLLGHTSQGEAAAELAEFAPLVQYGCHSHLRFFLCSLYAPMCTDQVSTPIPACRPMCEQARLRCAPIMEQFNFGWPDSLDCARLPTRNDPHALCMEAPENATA
Experimental: as §1, §2, §3

FZD7 CRD = molecular target: T6, FZD7 CRD (Homo sapiens, UniProt O75084); assay: as above; parameters: key: −: no binding; +: very weak binder; ++: weak binder; +++: good binder; ++++: very good binder
T6 construct: D45-S169; GPI anchor signal (C); expressed in transfected cells; host or cells: CHO cells, lentiviral pLenti-puro
Experimental: as §1, §2, §3

FZD10 CRD = molecular target: T7, FZD10 CRD (Homo sapiens, UniProt Q9ULW2); assay: as above; parameters: key: −: no binding; +: very weak binder; ++: weak binder; +++: good binder; ++++: very good binder
T7 construct: 30-156; GPI anchor signal (C); expressed in transfected cells; host or cells: CHO cells, lentiviral pLenti-puro
T7 sequence (Q9ULW2 30-156): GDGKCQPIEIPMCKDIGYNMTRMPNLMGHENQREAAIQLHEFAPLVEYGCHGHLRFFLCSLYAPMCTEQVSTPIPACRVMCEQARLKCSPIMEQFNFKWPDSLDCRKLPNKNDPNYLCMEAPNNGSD
Experimental: as §1, §2, §3

Immunofluorescence binding, Frizzled CRD overexpressed on CHO cells: FZD3 (FZD3 CRD): −
Immunofluorescence binding, Frizzled CRD overexpressed on CHO cells: FZD6 (FZD6 CRD): −
Immunofluorescence binding, Frizzled CRD overexpressed on CHO cells: FZD4 (FZD4 CRD): −
Immunofluorescence binding, Frizzled CRD overexpressed on CHO cells: FZD2 (FZD2 CRD): +
Immunofluorescence binding, Frizzled CRD overexpressed on CHO cells: FZD9 (FZD9 CRD): −
Immunofluorescence binding, Frizzled CRD overexpressed on CHO cells: FZD7 (FZD7 CRD): +
Immunofluorescence binding, Frizzled CRD overexpressed on CHO cells: FZD10 (FZD10 CRD): −
Substance: Fab-2931: anti-FZD5 Fab with antibody variable region Fv-2931; CDR SEQ ID NOs: 35, 36, 70, 102, 146, 176 (CDR 1 QSVSSA; CDR 2 SAS; CDR 3 QQSSYSLIT; CDR 4 GFNLSYSS; CDR 5 ISPYSGST; CDR 6 ARGSYWYVGGGWWVSGHGGMDY)
percent growth inhibition, PATU8988s 2 μg/ml (PATU8988S cells): −20.00%
